Laboratory results as given in patent US20070077617.

Experiments:
[1] = target: fusion protein PRA
[2] = target: fusion protein PRG
[3] = target: fusion protein PRF
[4] = target: fusion protein PRI
[5] = target: fusion protein PRM
[6] = target: fusion protein PRE
[7] = target: fusion protein PRN
[8] = target: fusion protein PRS
[9] = target: fusion protein PRQ
[10] = target: fusion protein PRP
[11] = target: fusion protein PRR
[12] = target: fusion protein PRH
[13] = target: fusion protein PRK
[14] = target: fusion protein PRY
Chain of fusion protein PRY (chain, as listed by the source): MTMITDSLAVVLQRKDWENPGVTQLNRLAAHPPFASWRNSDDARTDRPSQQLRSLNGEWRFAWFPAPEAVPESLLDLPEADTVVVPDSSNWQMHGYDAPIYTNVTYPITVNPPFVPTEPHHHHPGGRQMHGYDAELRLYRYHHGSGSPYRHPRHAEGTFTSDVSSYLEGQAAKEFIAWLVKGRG

[15] = target: fusion protein PRL
Chain of fusion protein PRL (chain, as listed by the source): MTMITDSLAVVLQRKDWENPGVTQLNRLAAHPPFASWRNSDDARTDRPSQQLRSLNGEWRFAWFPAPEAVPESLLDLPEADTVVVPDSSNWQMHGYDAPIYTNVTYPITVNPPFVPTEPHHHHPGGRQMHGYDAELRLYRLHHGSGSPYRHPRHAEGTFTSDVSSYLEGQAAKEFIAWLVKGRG

[16] = target: fusion protein PRT
Chain of fusion protein PRT (chain, as listed by the source): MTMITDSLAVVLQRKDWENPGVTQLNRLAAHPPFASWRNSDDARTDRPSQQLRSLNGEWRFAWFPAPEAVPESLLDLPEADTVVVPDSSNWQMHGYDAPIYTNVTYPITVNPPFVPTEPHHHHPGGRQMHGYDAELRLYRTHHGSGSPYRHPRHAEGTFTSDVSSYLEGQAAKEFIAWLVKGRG

[17] = target: fusion protein PRC
Chain of fusion protein PRC (chain, as listed by the source): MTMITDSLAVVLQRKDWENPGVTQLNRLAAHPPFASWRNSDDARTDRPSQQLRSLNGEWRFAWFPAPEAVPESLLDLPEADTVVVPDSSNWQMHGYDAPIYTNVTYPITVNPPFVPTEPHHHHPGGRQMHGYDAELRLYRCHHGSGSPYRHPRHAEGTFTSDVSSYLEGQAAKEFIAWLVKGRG

[18] = target: fusion protein PRD
Chain of fusion protein PRD (chain, as listed by the source): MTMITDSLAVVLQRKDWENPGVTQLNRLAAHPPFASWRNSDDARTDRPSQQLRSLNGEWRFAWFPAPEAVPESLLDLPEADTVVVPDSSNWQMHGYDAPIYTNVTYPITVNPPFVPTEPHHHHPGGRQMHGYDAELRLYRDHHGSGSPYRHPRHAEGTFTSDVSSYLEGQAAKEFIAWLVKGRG

[19] = target: fusion protein PRW
Chain of fusion protein PRW (chain, as listed by the source): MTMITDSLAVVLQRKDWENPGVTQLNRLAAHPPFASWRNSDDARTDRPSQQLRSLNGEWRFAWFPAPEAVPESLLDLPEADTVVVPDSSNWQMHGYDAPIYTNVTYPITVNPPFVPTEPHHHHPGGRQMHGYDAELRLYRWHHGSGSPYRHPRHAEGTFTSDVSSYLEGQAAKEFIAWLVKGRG

Measured: relative cleavage efficiency

Chain of fusion protein PRM (chain, as listed by the source): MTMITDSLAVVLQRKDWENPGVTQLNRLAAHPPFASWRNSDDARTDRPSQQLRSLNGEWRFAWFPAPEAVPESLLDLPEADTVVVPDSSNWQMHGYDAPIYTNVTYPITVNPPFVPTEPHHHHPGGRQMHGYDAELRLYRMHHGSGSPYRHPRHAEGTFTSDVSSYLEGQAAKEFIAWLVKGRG
Chain of fusion protein PRK (chain, as listed by the source): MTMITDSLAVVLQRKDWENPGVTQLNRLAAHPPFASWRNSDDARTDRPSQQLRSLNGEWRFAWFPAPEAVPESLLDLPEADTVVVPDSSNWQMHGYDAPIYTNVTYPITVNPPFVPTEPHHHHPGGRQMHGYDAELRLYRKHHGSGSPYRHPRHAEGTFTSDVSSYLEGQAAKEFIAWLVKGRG
Chain of fusion protein PRA (chain, as listed by the source): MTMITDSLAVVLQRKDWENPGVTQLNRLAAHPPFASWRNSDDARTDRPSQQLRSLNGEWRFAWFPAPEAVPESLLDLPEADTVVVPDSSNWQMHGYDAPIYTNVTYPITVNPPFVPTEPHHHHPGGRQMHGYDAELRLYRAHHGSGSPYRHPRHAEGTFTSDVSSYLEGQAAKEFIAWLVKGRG
Chain of fusion protein PRQ (chain, as listed by the source): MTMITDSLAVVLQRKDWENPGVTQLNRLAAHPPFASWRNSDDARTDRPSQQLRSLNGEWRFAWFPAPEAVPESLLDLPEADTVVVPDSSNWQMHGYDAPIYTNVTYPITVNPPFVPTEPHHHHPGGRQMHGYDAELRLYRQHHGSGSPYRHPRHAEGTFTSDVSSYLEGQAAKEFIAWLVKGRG
Chain of fusion protein PRR (chain, as listed by the source): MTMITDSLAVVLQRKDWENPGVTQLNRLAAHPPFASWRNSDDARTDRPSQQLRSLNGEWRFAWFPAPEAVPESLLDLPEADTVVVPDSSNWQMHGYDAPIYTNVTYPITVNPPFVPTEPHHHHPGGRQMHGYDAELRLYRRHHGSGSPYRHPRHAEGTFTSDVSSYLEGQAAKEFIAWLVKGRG
Chain of fusion protein PRH (chain, as listed by the source): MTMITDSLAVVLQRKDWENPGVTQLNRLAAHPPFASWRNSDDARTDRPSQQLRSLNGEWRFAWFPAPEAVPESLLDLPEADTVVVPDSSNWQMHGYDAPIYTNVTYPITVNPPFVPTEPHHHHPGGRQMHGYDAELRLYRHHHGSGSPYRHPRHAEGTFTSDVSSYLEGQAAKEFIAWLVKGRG
Chain of fusion protein PRN (chain, as listed by the source): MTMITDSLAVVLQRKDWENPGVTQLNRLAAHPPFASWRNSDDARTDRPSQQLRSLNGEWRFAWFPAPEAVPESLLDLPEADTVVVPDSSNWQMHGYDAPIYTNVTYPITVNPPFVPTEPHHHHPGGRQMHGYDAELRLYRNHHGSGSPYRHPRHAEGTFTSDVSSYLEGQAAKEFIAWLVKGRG
Chain of fusion protein PRI (chain, as listed by the source): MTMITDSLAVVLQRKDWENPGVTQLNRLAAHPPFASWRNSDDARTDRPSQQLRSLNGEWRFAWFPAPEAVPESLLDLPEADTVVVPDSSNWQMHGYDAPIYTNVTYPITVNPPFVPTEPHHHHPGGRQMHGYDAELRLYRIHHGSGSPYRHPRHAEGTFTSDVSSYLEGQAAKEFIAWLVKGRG
Chain of fusion protein PRS (chain, as listed by the source): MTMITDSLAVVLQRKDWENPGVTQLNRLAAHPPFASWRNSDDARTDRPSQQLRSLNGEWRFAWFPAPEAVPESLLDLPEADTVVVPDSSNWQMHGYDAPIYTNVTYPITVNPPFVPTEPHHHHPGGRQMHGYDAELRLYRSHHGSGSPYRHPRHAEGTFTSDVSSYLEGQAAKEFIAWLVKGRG
Chain of fusion protein PRF (chain, as listed by the source): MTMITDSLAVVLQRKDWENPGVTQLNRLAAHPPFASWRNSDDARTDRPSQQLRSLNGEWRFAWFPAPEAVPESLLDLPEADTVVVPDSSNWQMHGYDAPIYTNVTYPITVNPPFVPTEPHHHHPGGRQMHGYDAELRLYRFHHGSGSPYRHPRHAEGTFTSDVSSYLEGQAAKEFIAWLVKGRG
Chain of fusion protein PRE (chain, as listed by the source): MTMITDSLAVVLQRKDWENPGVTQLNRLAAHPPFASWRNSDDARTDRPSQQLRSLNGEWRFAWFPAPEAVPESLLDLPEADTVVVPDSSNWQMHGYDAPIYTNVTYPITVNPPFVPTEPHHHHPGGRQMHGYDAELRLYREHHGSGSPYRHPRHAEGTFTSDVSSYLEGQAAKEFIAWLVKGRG
Chain of fusion protein PRG (chain, as listed by the source): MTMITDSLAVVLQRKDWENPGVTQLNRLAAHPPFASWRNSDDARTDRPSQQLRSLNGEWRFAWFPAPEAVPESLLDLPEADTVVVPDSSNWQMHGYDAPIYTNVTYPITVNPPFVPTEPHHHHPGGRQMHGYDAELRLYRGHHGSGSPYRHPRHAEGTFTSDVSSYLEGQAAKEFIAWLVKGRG

B1: OmpT protease variant OmpT D97P (protein)
chain: STETLSFTPDNINADISLGTLSGKTKERVYLAEEGGRKVSQLDWKFNNAAIIKGAINWDLMPQISIGAAGWTTLGSRGGNMVDQDWMDSSNPGTWTPESRHPDTQLNYANEFDLNIKGWLLNEPNYRLGLMAGYQESRYSFTARGGSYIYSSEEGFRDDIGSFPNGERAIGYKQRFKMPYIGLTGSYRYEDFELGGTFKYSGWVESSDNDEHYDPGKRITYRSKVKDQNYYSVAVNAGYYVTPNAKVYVEGAWNRVTNKKGNTSLYDHNNNTSDYSKNGAGIENYNFITTAGLKYTF
less than 3.0%: all assays above

B2: OmpT protease variant OmpT D97G (protein)
chain: STETLSFTPDNINADISLGTLSGKTKERVYLAEEGGRKVSQLDWKFNNAAIIKGAINWDLMPQISIGAAGWTTLGSRGGNMVDQDWMDSSNPGTWTGESRHPDTQLNYANEFDLNIKGWLLNEPNYRLGLMAGYQESRYSFTARGGSYIYSSEEGFRDDIGSFPNGERAIGYKQRFKMPYIGLTGSYRYEDFELGGTFKYSGWVESSDNDEHYDPGKRITYRSKVKDQNYYSVAVNAGYYVTPNAKVYVEGAWNRVTNKKGNTSLYDHNNNTSDYSKNGAGIENYNFITTAGLKYTF
less than 3.0%: all assays above

B3: OmpT protease variant OmpT D97W (protein)
chain: STETLSFTPDNINADISLGTLSGKTKERVYLAEEGGRKVSQLDWKFNNAAIIKGAINWDLMPQISIGAAGWTTLGSRGGNMVDQDWMDSSNPGTWTWESRHPDTQLNYANEFDLNIKGWLLNEPNYRLGLMAGYQESRYSFTARGGSYIYSSEEGFRDDIGSFPNGERAIGYKQRFKMPYIGLTGSYRYEDFELGGTFKYSGWVESSDNDEHYDPGKRITYRSKVKDQNYYSVAVNAGYYVTPNAKVYVEGAWNRVTNKKGNTSLYDHNNNTSDYSKNGAGIENYNFITTAGLKYTF
less than 3.0%: all assays above

B4: OmpT protease variant OmpT D97Y (protein)
chain: STETLSFTPDNINADISLGTLSGKTKERVYLAEEGGRKVSQLDWKFNNAAIIKGAINWDLMPQISIGAAGWTTLGSRGGNMVDQDWMDSSNPGTWTYESRHPDTQLNYANEFDLNIKGWLLNEPNYRLGLMAGYQESRYSFTARGGSYIYSSEEGFRDDIGSFPNGERAIGYKQRFKMPYIGLTGSYRYEDFELGGTFKYSGWVESSDNDEHYDPGKRITYRSKVKDQNYYSVAVNAGYYVTPNAKVYVEGAWNRVTNKKGNTSLYDHNNNTSDYSKNGAGIENYNFITTAGLKYTF
less than 3.0%: all assays above

B5: OmpT protease variant OmpT D97K (protein)
chain: STETLSFTPDNINADISLGTLSGKTKERVYLAEEGGRKVSQLDWKFNNAAIIKGAINWDLMPQISIGAAGWTTLGSRGGNMVDQDWMDSSNPGTWTKESRHPDTQLNYANEFDLNIKGWLLNEPNYRLGLMAGYQESRYSFTARGGSYIYSSEEGFRDDIGSFPNGERAIGYKQRFKMPYIGLTGSYRYEDFELGGTFKYSGWVESSDNDEHYDPGKRITYRSKVKDQNYYSVAVNAGYYVTPNAKVYVEGAWNRVTNKKGNTSLYDHNNNTSDYSKNGAGIENYNFITTAGLKYTF
less than 3.0%: all assays above
